Measured values: patent publication US6994968

Molecular target: human Slo1 (human), Q12791
Test: cell-based or functional assay

Chain of human Slo1 (human), Q12791 (Q12791 whole entry): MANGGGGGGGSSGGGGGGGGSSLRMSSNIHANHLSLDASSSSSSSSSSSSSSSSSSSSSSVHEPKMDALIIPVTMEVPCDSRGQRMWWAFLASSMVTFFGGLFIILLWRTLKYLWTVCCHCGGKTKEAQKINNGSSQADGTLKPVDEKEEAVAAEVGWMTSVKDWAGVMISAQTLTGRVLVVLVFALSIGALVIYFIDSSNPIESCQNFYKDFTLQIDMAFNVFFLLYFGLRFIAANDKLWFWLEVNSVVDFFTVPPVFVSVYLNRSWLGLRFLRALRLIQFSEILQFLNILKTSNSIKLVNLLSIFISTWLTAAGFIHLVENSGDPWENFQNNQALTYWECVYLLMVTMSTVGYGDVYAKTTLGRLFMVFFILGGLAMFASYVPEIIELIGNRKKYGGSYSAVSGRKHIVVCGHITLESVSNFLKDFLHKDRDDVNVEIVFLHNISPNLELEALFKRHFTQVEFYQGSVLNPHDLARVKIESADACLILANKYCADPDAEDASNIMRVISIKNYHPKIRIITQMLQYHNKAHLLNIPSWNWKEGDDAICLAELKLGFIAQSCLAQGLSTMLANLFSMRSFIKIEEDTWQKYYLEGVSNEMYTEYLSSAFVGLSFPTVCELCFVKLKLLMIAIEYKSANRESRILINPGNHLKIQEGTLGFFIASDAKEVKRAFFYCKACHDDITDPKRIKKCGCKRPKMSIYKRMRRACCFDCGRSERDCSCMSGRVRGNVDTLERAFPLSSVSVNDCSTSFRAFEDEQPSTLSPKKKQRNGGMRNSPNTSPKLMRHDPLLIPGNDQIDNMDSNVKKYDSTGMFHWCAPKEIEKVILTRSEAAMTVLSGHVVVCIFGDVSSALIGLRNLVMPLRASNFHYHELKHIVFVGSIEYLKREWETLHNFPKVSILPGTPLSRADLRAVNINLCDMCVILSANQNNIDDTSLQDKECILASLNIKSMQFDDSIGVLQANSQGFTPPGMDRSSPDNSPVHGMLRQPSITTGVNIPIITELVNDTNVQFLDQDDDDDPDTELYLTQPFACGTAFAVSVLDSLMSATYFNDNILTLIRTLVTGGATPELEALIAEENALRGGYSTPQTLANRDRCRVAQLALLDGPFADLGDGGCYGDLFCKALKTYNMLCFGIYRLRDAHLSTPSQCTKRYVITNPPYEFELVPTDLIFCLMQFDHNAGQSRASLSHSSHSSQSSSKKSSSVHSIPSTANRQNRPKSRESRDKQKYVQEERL

leftward shift in the Slo-1 activation curve (V1/2act) in the presence of 50 µM free Ca2+: 15 mV
B1: human BK beta 3, Q86W47 1-210 (protein)
chain: MAKLRVAYEYTEAEDKSIRLGLFLIISGVVSLFIFGFCWLSPALQDLQATEANCTVLSVQQIGEVFECTFTCGADCRGTSQYPCVQVYVNNSESNSRALLHSDEHQLLTNPKCSYIPPCKRENQKNLESVMNWQQYWKDEIGSQPFTCYFNQHQRPDDVLLHRTHDEIVLLHCFLWPLVTFVVGVLIVVLTICAKSLAVKAEAMKKRKFS
